The Human Domainome abundance scans (Beltran et al. 2025)
± gives the uncertainty stated by the source.

B1: Tudor domain-containing protein 3, residues 554 to 611; numbered along this chain, Q9H7E2 (parent)
chain: KMWKPGDECFALYWEDNKFYRAEVEALHSSGMTAVVKFIDYGNYEEVLLSNIKPIQTE

Variants of: B1
Assay: abundance fitness (aPCA) (normalised: wild type 0, dead -1); higher = more abundant; growth selection in yeast, the domain comes from the species named
Conditions: Homo sapiens

Variant | abundance fitness
S50T | 0.059 ± 0.086
S50V | -0.082 ± 0.063
S50D | 0.026 ± 0.084
S50L | -0.523 ± 0.074
S50E | -0.118 ± 0.083
S50I | -0.192 ± 0.094
S50A | 0.019 ± 0.077
S50G | -0.155 ± 0.054
S50K | 0.03 ± 0.08
S50Y | -0.437 ± 0.097
S50H | 0.048 ± 0.11
S50R | -0.155 ± 0.056
S50M | -0.255 ± 0.09
S50N | -0.217 ± 0.086
S50Q | -0.115 ± 0.11
S50W | -0.585 ± 0.08
S50F | -0.605 ± 0.093
S50P | -0.548 ± 0.082
L49Q | -0.583 ± 0.11
L49Y | -0.464 ± 0.1
L49S | -0.645 ± 0.07
L49R | -0.708 ± 0.069
L49V | -0.046 ± 0.058
L49N | -1.05 ± 0.19

Variant | abundance fitness
L49W | -0.629 ± 0.1
L49P | -0.922 ± 0.14
L49M | -0.032 ± 0.081
L49K | -0.774 ± 0.13
N51T | -0.529 ± 0.077
N51D | -0.097 ± 0.1
N51S | -0.205 ± 0.064
N51Y | -0.678 ± 0.16
N51R | -0.485 ± 0.06
N51F | -1.02 ± 0.19
N51G | -0.462 ± 0.055
N51Q | -0.036 ± 0.09
N51L | -0.727 ± 0.071
N51A | -0.308 ± 0.065
N51K | -0.418 ± 0.076
N51W | -0.271 ± 0.077
N51P | -1.02 ± 0.14
N51H | 0.055 ± 0.084
N51C | -0.205 ± 0.11
N51E | -0.272 ± 0.069
N51I | -0.837 ± 0.13
N51V | -0.925 ± 0.083
N51M | -0.364 ± 0.075
Q56I | -0.038 ± 0.092

Variant | abundance fitness
Q56P | 0.015 ± 0.074
Q56G | 0.031 ± 0.056
Q56R | -0.078 ± 0.054
Q56E | 0.113 ± 0.081
Q56D | -0.061 ± 0.093
Q56H | 0.041 ± 0.086
Q56C | 0.008 ± 0.082
Q56L | -0.07 ± 0.057
Q56W | -0.189 ± 0.077
Q56T | -0.003 ± 0.087
Q56F | -0.071 ± 0.11
Q56V | -0.02 ± 0.06
Q56S | -0.054 ± 0.064
Q56M | -0.037 ± 0.097
Q56K | -0.065 ± 0.096
I52P | -0.639 ± 0.12
I52A | -0.824 ± 0.093
I52T | -0.686 ± 0.14
I52M | 0.028 ± 0.12
I52F | -0.906 ± 0.25
I52S | -0.853 ± 0.089
I52G | -0.895 ± 0.064
I52L | 0.032 ± 0.067
I52W | -0.81 ± 0.11

Variant | abundance fitness
I52V | -0.184 ± 0.063
I52D | -0.857 ± 0.13
I52C | -0.37 ± 0.077
I52K | -0.974 ± 0.43
I52Y | -0.923 ± 0.16
I52Q | -1.01 ± 0.19
I52E | -0.911 ± 0.12
I52R | -0.938 ± 0.079
I52H | -1.04 ± 0.34
E58I | -0.187 ± 0.23
E58S | 0.113 ± 0.11
E58T | -0.037 ± 0.23
E58N | 0.049 ± 0.29
E58Y | -0.157 ± 0.25
E58Q | -0.252 ± 0.29
E58F | -0.314 ± 0.24
E58A | -0.133 ± 0.085
E58V | -0.136 ± 0.084
E58K | -0.024 ± 0.2
E58G | -0.042 ± 0.082
E58D | -0.058 ± 0.081
E58C | -0.062 ± 0.16
E58L | -0.183 ± 0.12
E58H | -0.304 ± 0.12

Variant | abundance fitness
E58R | -0.111 ± 0.12
E58W | -0.068 ± 0.24
E58M | -0.175 ± 0.14
K53W | -0.242 ± 0.12
K53R | 0.008 ± 0.06
K53C | -0.238 ± 0.087
K53N | -0.378 ± 0.087
K53A | -0.276 ± 0.062
K53M | -0.192 ± 0.12
K53V | -0.194 ± 0.057
K53I | -0.145 ± 0.092
K53L | -0.217 ± 0.07
K53Y | -0.214 ± 0.087
K53H | -0.213 ± 0.11
K53D | -0.659 ± 0.092
K53F | -0.229 ± 0.088
K53G | -0.711 ± 0.065
K53T | -0.109 ± 0.096
K53P | -0.809 ± 0.15
K53Q | -0.12 ± 0.1
K53E | -0.261 ± 0.079
T57R | -0.047 ± 0.059
T57I | -0.036 ± 0.11
T57N | 0.019 ± 0.11

Variant | abundance fitness
T57W | -0.272 ± 0.096
T57H | 0.06 ± 0.12
T57E | 0.114 ± 0.092
T57S | 0.021 ± 0.063
T57C | -0.005 ± 0.085
T57D | 0.083 ± 0.074
T57F | -0.123 ± 0.1
T57K | -0.047 ± 0.16
T57Q | 0.02 ± 0.14
T57A | 0.041 ± 0.065
T57V | 0.04 ± 0.063
T57G | 0.029 ± 0.055
T57Y | -0.072 ± 0.11
P54H | -0.181 ± 0.12
P54S | -0.158 ± 0.063
P54G | -0.332 ± 0.057
P54D | -0.229 ± 0.1
P54Q | -0.188 ± 0.097
P54A | -0.162 ± 0.07
P54E | -0.006 ± 0.11
P54L | -0.36 ± 0.065
P54K | -0.138 ± 0.11
P54I | -0.5 ± 0.12
P54R | -0.17 ± 0.054

Variant | abundance fitness
P54T | -0.125 ± 0.093
P54W | -0.767 ± 0.085
P54N | -0.41 ± 0.13
P54C | -0.429 ± 0.093
P54Y | -0.565 ± 0.14
P54F | -0.701 ± 0.15
P54V | -0.298 ± 0.077
I55E | -0.558 ± 0.099
I55D | -0.415 ± 0.1
I55A | -0.028 ± 0.079
I55N | -0.265 ± 0.12
I55G | -0.351 ± 0.051
I55W | -0.372 ± 0.078
I55M | -0.096 ± 0.095
I55R | -0.068 ± 0.055
I55F | -0.1 ± 0.13
I55Y | -0.132 ± 0.11
I55T | -0.18 ± 0.097
I55P | -0.084 ± 0.11
I55S | -0.192 ± 0.067
I55V | -0.039 ± 0.063
I55K | -0.139 ± 0.089
I55C | -0.041 ± 0.074
